Results taken from patent publication US7183387 (Genentech, dated 2007).

T1: human FcγRIIA-H131 α subunit extracellular domain-His6-GST fusion (human, UniProt P12318 34-217)
T1 construct: ECD-6His-GST fusion made in 293 cells; also called FcγRIIA-His131; not shown: glutathione S transferase (GST)
T1 sequence: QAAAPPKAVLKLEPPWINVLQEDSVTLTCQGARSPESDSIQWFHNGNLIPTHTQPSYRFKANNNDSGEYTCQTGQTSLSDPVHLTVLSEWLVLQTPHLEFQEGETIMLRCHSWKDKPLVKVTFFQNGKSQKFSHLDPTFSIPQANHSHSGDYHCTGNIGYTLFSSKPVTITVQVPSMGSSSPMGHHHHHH

T2: human FcγRIIA-R131 α subunit extracellular domain-His6-GST fusion (human, UniProt P12318 34-217)
T2 construct: ECD-6His-GST fusion made in 293 cells; also called FcγRIIA-Arg131; not shown: glutathione S transferase (GST)
T2 sequence: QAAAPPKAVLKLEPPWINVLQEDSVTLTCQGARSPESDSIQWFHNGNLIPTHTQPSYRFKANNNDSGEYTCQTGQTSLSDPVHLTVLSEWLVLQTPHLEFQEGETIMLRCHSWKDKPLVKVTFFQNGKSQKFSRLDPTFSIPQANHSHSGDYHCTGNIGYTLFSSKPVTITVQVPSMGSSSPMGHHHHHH

T3: human FcγRIIA-R131 α subunit extracellular domain-His6-GST fusion protein (human, UniProt P12318 34-217)
T3 construct: ECD-6His-GST fusion made in 293 cells, coated on the plate; also called FcγRIIA-Arg131; not shown: glutathione S-transferase (GST)
T3 sequence: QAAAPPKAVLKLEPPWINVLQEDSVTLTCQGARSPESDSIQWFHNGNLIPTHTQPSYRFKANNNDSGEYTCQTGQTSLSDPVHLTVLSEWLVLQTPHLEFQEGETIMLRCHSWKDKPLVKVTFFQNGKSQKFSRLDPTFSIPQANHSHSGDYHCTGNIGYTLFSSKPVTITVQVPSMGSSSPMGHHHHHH

T4: human FcγRIIA-H131 α subunit extracellular domain-His6-GST fusion protein (human, UniProt P12318 34-217)
T4 construct: also called FcγRIIA-His131; not shown: glutathione S-transferase (GST)
T4 sequence: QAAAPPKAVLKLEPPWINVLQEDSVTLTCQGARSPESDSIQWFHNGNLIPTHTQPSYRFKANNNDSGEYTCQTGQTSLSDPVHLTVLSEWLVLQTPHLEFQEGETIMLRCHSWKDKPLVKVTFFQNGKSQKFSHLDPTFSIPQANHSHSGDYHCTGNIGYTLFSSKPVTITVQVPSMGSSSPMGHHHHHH


How the values were obtained:
[1] = target: T5, human FcγRIIIA-F158 α subunit extracellular domain-His6-GST fusion (human, UniProt P08637 17-208); experiment: ELISA, IgG complex, receptor coated
T5 construct: ECD-6His-GST fusion made in 293 cells; also called FcγRIIIA-Phe158; not shown: glutathione S transferase (GST)

[2] = target: T1, human FcγRIIA-H131 α subunit …; experiment: ELISA, IgG complex, receptor coated
[3] = target: T2, human FcγRIIA-R131 α subunit …; experiment: ELISA, IgG complex, receptor coated
[4] = target: T3, human FcγRIIA-R131 α subunit …; experiment: ELISA, IgG:IgE hexamer on coated FcγRIIA-R131-GST; value carried over from Table 6, 7 or 8
[5] = target: T4, human FcγRIIA-H131 α subunit …; experiment: ELISA; binding ratio on FcγRIIA-H131 divided by that on FcγRIIA-R131
[6] = target: T4, human FcγRIIA-H131 α subunit …; experiment: ELISA, IgG:IgE hexamer on coated FcγRIIA-H131-GST
[7] = target: T3, human FcγRIIA-R131 α subunit …; experiment: ELISA, IgG:IgE hexamer on coated FcγRIIA-R131-GST; separate assays run together with the H131 assays

T5 sequence (P08637 other isoform, or with tags, fused parts or gaps, form in doubt): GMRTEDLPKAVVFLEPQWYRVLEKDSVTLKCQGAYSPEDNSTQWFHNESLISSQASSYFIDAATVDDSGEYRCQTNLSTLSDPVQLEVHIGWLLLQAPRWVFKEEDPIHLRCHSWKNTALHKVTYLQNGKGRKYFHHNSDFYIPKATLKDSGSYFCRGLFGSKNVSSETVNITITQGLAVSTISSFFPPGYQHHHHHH

Row | ratio of binding, variant/native IgG1 (mean) [1] [ratio] | ratio of binding, variant/native IgG1 (mean) [2] [ratio] | ratio of binding, variant/native IgG1 (mean) [3] [ratio] | ratio of binding of the variant to that of native IgG1 [4] | H131/R131 [5] | ratio of binding of the variant to that of native IgG1 [6] | ratio of binding of the variant to that of native IgG1 [7] | Binder
1 | 1.14 | 1.05 | 1.64 | – | – | – | – | anti-IgE E27 IgG1 variant S267(280)A (antibody, Fc variant of E27; also called IG2 15; G15) heavy: not shown light: DIQLTQSPSSLSASVGDRVTITCRASKPVDGEGDSYLNWYQQKPGKAPKLLIYAASYLESGVPSRFSGSGSGTDFTLTISSLQPEDFATYYCQQSHEDPYTFGQGTKVEIKRTVAAPSVFIFPPSDEQLKSGTASVVCLLNNFYPREAKVQWKVDNALQSGNSQESVTEQDSKDSTYSLSSTLTLSKADYEKHKVYACEVTHQGLSSPVTKSFNRGEC
2 | 1.12 | 1.37 | 1.19 | – | – | – | – | anti-IgE E27 IgG1 variant T307(326)A (antibody, Fc variant of E27; also called IG2 41; Thr307Ala) heavy: not shown light: DIQLTQSPSSLSASVGDRVTITCRASKPVDGEGDSYLNWYQQKPGKAPKLLIYAASYLESGVPSRFSGSGSGTDFTLTISSLQPEDFATYYCQQSHEDPYTFGQGTKVEIKRTVAAPSVFIFPPSDEQLKSGTASVVCLLNNFYPREAKVQWKVDNALQSGNSQESVTEQDSKDSTYSLSSTLTLSKADYEKHKVYACEVTHQGLSSPVTKSFNRGEC
3 | 0.09 | 0.59 | 1.21 | – | – | – | – | anti-IgE E27 IgG1 variant S267(280)G (antibody, Fc variant of E27; also called IG2 189; Ser267Gly) heavy: not shown light: DIQLTQSPSSLSASVGDRVTITCRASKPVDGEGDSYLNWYQQKPGKAPKLLIYAASYLESGVPSRFSGSGSGTDFTLTISSLQPEDFATYYCQQSHEDPYTFGQGTKVEIKRTVAAPSVFIFPPSDEQLKSGTASVVCLLNNFYPREAKVQWKVDNALQSGNSQESVTEQDSKDSTYSLSSTLTLSKADYEKHKVYACEVTHQGLSSPVTKSFNRGEC
4 | 1.1 | 1.04 | 1.13 | – | – | – | – | anti-IgE E27 IgG1 variant K317(336)A (antibody, Fc variant of E27; also called IG2 46; Lys317Ala) heavy: not shown light: DIQLTQSPSSLSASVGDRVTITCRASKPVDGEGDSYLNWYQQKPGKAPKLLIYAASYLESGVPSRFSGSGSGTDFTLTISSLQPEDFATYYCQQSHEDPYTFGQGTKVEIKRTVAAPSVFIFPPSDEQLKSGTASVVCLLNNFYPREAKVQWKVDNALQSGNSQESVTEQDSKDSTYSLSSTLTLSKADYEKHKVYACEVTHQGLSSPVTKSFNRGEC
5 | – | – | – | 1.21 ratio (variant/native IgG1) | 0.75 ratio (H131 value/R131 value) | 0.97 ratio (variant/native IgG1) | 1.3 ratio (variant/native IgG1) | anti-IgE E27 IgG1 variant His268Ala (antibody, also called H268(281)A; H281A) heavy: not shown light: DIQLTQSPSSLSASVGDRVTITCRASKPVDGEGDSYLNWYQQKPGKAPKLLIYAASYLESGVPSRFSGSGSGTDFTLTISSLQPEDFATYYCQQSHEDPYTFGQGTKVEIKRTVAAPSVFIFPPSDEQLKSGTASVVCLLNNFYPREAKVQWKVDNALQSGNSQESVTEQDSKDSTYSLSSTLTLSKADYEKHKVYACEVTHQGLSSPVTKSFNRGEC
6 | 0.87 | 1.16 | 1.12 | – | – | – | – | anti-IgE E27 IgG1 variant K320(339)A (antibody, Fc variant of E27; also called IG2 48; Lys320Ala) heavy: not shown light: DIQLTQSPSSLSASVGDRVTITCRASKPVDGEGDSYLNWYQQKPGKAPKLLIYAASYLESGVPSRFSGSGSGTDFTLTISSLQPEDFATYYCQQSHEDPYTFGQGTKVEIKRTVAAPSVFIFPPSDEQLKSGTASVVCLLNNFYPREAKVQWKVDNALQSGNSQESVTEQDSKDSTYSLSSTLTLSKADYEKHKVYACEVTHQGLSSPVTKSFNRGEC

More lines, now with the values behind:

Row | Binder | ratio of binding, variant/native IgG1 (mean) [1] [ratio] | ratio of binding, variant/native IgG1 (mean) [2] [ratio] | ratio of binding, variant/native IgG1 (mean) [3] [ratio] | ratio of binding of the variant to that of native IgG1 [4] | H131/R131 [5] | ratio of binding of the variant to that of native IgG1 [6] | ratio of binding of the variant to that of native IgG1 [7]
7 | anti-IgE E27 IgG1 variant H268(281)A (antibody, Fc variant of E27; also called IG2 16; G16) heavy: not shown light: DIQLTQSPSSLSASVGDRVTITCRASKPVDGEGDSYLNWYQQKPGKAPKLLIYAASYLESGVPSRFSGSGSGTDFTLTISSLQPEDFATYYCQQSHEDPYTFGQGTKVEIKRTVAAPSVFIFPPSDEQLKSGTASVVCLLNNFYPREAKVQWKVDNALQSGNSQESVTEQDSKDSTYSLSSTLTLSKADYEKHKVYACEVTHQGLSSPVTKSFNRGEC | 0.52 | 1.09 | 1.22 | – | – | – | –
8 | anti-IgE E27 IgG1 variant Ser267Ala (antibody, also called S267(280)A; S280A) heavy: not shown light: DIQLTQSPSSLSASVGDRVTITCRASKPVDGEGDSYLNWYQQKPGKAPKLLIYAASYLESGVPSRFSGSGSGTDFTLTISSLQPEDFATYYCQQSHEDPYTFGQGTKVEIKRTVAAPSVFIFPPSDEQLKSGTASVVCLLNNFYPREAKVQWKVDNALQSGNSQESVTEQDSKDSTYSLSSTLTLSKADYEKHKVYACEVTHQGLSSPVTKSFNRGEC | – | – | – | 1.52 ratio (variant/native IgG1) | 0.71 ratio (H131 value/R131 value) | 1.1 ratio (variant/native IgG1) | 1.53 ratio (variant/native IgG1)
9 | anti-IgE E27 IgG1 variant Lys317Ala (antibody, also called K317(336)A; IG2 46) heavy: not shown light: DIQLTQSPSSLSASVGDRVTITCRASKPVDGEGDSYLNWYQQKPGKAPKLLIYAASYLESGVPSRFSGSGSGTDFTLTISSLQPEDFATYYCQQSHEDPYTFGQGTKVEIKRTVAAPSVFIFPPSDEQLKSGTASVVCLLNNFYPREAKVQWKVDNALQSGNSQESVTEQDSKDSTYSLSSTLTLSKADYEKHKVYACEVTHQGLSSPVTKSFNRGEC | – | – | – | 1.13 ratio (variant/native IgG1) | 0.99 ratio (H131 value/R131 value) | 1.08 ratio (variant/native IgG1) | 1.1 ratio (variant/native IgG1)
10 | anti-IgE E27 IgG1 variant V305(324)A (antibody, Fc variant of E27; also called IG2 40; Val305Ala) heavy: not shown light: DIQLTQSPSSLSASVGDRVTITCRASKPVDGEGDSYLNWYQQKPGKAPKLLIYAASYLESGVPSRFSGSGSGTDFTLTISSLQPEDFATYYCQQSHEDPYTFGQGTKVEIKRTVAAPSVFIFPPSDEQLKSGTASVVCLLNNFYPREAKVQWKVDNALQSGNSQESVTEQDSKDSTYSLSSTLTLSKADYEKHKVYACEVTHQGLSSPVTKSFNRGEC | 0.84 | 1.04 | 1.12 | – | – | – | –
11 | anti-IgE E27 IgG1 variant S267(280)A/H268(281)A (antibody, Fc variant of E27; also called IG2 96; Ser267Ala/His268Ala) heavy: not shown light: DIQLTQSPSSLSASVGDRVTITCRASKPVDGEGDSYLNWYQQKPGKAPKLLIYAASYLESGVPSRFSGSGSGTDFTLTISSLQPEDFATYYCQQSHEDPYTFGQGTKVEIKRTVAAPSVFIFPPSDEQLKSGTASVVCLLNNFYPREAKVQWKVDNALQSGNSQESVTEQDSKDSTYSLSSTLTLSKADYEKHKVYACEVTHQGLSSPVTKSFNRGEC | 0.84 | 1.07 | 1.54 | – | – | – | –
12 | anti-IgE E27 IgG1 variant Asn315Ala (antibody, also called IG2 45) heavy: not shown light: DIQLTQSPSSLSASVGDRVTITCRASKPVDGEGDSYLNWYQQKPGKAPKLLIYAASYLESGVPSRFSGSGSGTDFTLTISSLQPEDFATYYCQQSHEDPYTFGQGTKVEIKRTVAAPSVFIFPPSDEQLKSGTASVVCLLNNFYPREAKVQWKVDNALQSGNSQESVTEQDSKDSTYSLSSTLTLSKADYEKHKVYACEVTHQGLSSPVTKSFNRGEC | – | – | – | 1.15 ratio (variant/native IgG1) | 0.99 ratio (H131 value/R131 value) | 1.1 ratio (variant/native IgG1) | 1.11 ratio (variant/native IgG1)
13 | anti-IgE E27 IgG1 variant N315(334)A (antibody, Fc variant of E27; also called IG2 45; Asn315Ala) heavy: not shown light: DIQLTQSPSSLSASVGDRVTITCRASKPVDGEGDSYLNWYQQKPGKAPKLLIYAASYLESGVPSRFSGSGSGTDFTLTISSLQPEDFATYYCQQSHEDPYTFGQGTKVEIKRTVAAPSVFIFPPSDEQLKSGTASVVCLLNNFYPREAKVQWKVDNALQSGNSQESVTEQDSKDSTYSLSSTLTLSKADYEKHKVYACEVTHQGLSSPVTKSFNRGEC | 1.07 | 1.11 | 1.15 | – | – | – | –
14 | anti-IgE E27 IgG1 variant Ser267Gly (antibody, also called S267(280)G; IG2 189) heavy: not shown light: DIQLTQSPSSLSASVGDRVTITCRASKPVDGEGDSYLNWYQQKPGKAPKLLIYAASYLESGVPSRFSGSGSGTDFTLTISSLQPEDFATYYCQQSHEDPYTFGQGTKVEIKRTVAAPSVFIFPPSDEQLKSGTASVVCLLNNFYPREAKVQWKVDNALQSGNSQESVTEQDSKDSTYSLSSTLTLSKADYEKHKVYACEVTHQGLSSPVTKSFNRGEC | – | – | – | 1.18 ratio (variant/native IgG1) | 0.47 ratio (H131 value/R131 value) | 0.54 ratio (variant/native IgG1) | –
